Starred links: 1 amine or outer side, 2 acyl side, 3 side chain; linkers in the order of their positions; H or OH if unused. Positions of bridges follow the written chain, without caps; N, C: chain ends. Non-standard residues stand in square brackets, D forms with d. Primed or numbered codes have the meaning given here. B5(4) = 2,2-bis(4-pentenyl)glycine = 2-amino-2-(pent-4-en-1-yl)hept-6-enoic acid (stitching residue), C=CCCCC(CCCC=C)(N[*:1])C(=O)[*:2]; B5(3) = 2,2-bis(4-pentenyl)glycine (stitching residue), C=CCCCC(CCCC=C)(N[*:1])C(=O)[*:2]; Phe(3-COOH) = N[C@@H](Cc1cccc(C(=O)O)c1)C(=O)O; 2F3MeF = Cc1cccc(C[C@H](N[*:1])C(=O)[*:2])c1F; Bta = N[C@@H](Cc1csc2ccccc12)C(=O)O; Lys(iPr) = CC(C)NCCCC[C@H](N)C(=O)O; αAllylPro = C=CC[C@@]1(C(=O)O)CCCN1; tBuAla = CC(C)(C)C[C@H](N)C(=O)O; PyrS2(4) = not defined here
T1: B-cat-Halo (UniProt P35222 1-781)
T1 sequence (looked up): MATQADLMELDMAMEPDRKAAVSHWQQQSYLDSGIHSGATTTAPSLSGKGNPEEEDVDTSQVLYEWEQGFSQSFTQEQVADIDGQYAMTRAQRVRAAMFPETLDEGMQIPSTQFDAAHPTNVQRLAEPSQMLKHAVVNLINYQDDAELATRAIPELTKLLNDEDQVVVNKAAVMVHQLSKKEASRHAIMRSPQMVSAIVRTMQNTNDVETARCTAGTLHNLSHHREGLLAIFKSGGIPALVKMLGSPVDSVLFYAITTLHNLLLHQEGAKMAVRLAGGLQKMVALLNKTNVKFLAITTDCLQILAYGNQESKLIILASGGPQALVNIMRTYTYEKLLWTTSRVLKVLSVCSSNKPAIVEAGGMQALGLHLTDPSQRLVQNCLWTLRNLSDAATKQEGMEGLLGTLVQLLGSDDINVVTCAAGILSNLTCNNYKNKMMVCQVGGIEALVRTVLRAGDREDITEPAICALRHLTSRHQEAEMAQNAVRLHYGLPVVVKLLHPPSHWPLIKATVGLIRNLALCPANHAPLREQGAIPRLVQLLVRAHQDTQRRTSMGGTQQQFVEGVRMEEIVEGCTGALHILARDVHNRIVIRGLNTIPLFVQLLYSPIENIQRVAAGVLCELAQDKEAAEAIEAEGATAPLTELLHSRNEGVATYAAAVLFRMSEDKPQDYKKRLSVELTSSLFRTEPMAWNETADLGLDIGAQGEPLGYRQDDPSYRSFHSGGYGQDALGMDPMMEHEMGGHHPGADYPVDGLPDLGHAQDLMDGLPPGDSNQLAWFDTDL

T2: beta-catenin in DLD1 TCF/LEF luciferase reporter cells (UniProt P35222 2-781)
T2 sequence (looked up): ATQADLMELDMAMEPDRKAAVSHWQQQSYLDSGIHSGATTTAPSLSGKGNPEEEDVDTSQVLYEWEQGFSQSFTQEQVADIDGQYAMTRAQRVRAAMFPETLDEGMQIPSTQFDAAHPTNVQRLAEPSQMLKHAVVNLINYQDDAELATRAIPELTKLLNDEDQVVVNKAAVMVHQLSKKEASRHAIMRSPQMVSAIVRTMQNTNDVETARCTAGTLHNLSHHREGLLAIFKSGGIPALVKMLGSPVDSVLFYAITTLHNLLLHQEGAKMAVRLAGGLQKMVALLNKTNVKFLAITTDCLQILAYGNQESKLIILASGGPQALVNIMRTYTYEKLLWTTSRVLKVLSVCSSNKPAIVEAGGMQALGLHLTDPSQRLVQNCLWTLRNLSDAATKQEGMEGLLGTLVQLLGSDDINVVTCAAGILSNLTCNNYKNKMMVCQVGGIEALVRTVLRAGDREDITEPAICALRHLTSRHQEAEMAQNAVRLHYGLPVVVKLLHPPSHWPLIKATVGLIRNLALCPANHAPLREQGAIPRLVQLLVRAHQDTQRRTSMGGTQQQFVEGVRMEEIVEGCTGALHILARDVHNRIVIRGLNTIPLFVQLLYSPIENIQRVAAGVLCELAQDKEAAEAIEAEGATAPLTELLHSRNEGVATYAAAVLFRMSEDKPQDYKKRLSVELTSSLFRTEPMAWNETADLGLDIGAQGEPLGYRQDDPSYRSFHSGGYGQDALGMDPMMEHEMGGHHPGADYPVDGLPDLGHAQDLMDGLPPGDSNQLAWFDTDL

T3: beta-catenin in DLD1 TCF/LEF luciferase reporter cells (UniProt P35222 1-781)
T3 sequence (looked up): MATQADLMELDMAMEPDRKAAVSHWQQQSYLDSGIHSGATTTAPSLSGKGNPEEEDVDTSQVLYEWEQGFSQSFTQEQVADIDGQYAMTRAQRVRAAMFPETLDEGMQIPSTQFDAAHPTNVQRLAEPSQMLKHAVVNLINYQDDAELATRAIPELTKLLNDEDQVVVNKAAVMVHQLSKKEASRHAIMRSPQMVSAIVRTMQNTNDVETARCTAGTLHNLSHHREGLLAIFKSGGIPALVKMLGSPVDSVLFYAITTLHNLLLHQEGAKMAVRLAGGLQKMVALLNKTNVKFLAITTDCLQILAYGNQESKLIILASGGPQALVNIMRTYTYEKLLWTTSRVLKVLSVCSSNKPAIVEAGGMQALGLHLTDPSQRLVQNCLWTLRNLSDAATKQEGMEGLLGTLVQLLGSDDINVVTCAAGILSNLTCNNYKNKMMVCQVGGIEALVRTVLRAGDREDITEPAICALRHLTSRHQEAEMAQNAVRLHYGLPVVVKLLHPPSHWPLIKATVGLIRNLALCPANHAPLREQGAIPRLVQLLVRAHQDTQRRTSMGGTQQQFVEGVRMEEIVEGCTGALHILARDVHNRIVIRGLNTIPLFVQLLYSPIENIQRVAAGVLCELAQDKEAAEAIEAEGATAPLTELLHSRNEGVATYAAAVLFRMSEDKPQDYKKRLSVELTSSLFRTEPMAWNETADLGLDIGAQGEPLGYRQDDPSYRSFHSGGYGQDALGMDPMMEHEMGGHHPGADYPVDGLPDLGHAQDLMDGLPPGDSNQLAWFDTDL


Assays:
Experiment in all cases: cell-based or functional assay
B-cat-Halo = biological target: T1, B-cat-Halo
[1] = biological target: T2, beta-catenin in DLD1 TCF/LEF luciferase …
[2] = biological target: T3, beta-catenin in DLD1 TCF/LEF luciferase …

NanoBRET Abs IC50 (B-cat-Halo) [nM] | DLD1 4% Abs IC50 [1] [nM] | DLD1 4% Abs IC50 [2] [nM] | Binder
4500 | 2800 |  | Ac-[αAllylPro]D[tBuAla][B5(3)]D[Phe(3-COOH)]AAFL[PyrS2(4)][2F3MeF][Bta][Lys(iPr)]-NH2 (staple 1-4, 4-11; not fully specified; printed as Ac-PL3-Asp-Npg-B5-Asp-3COOHF-Ala-Ala-Phe-Leu-PyrS2-2F3MeF-BztA-iPrLys-NH2; reading uncertain) [I-1616]
 |  | 700 | Ac-[αAllylPro]D[tBuAla][B5(4)]D[Phe(3-COOH)]AAFL[PyrS2(4)][2F3MeF][Bta]Q-NH2 (staple 1-4, 4-11; not fully specified; printed as Ac-PL3-Asp-Npg-B5-Asp-3COOHF-Ala-Ala-Phe-Leu-PyrS2-2F3MeF-BztA-Gln-NH2; reading uncertain) [I-1466]

— US20240116985A1 (published 2024)
